Tests used:
[1] = molecular target: T1, complexes of murine β and γc (IL-2Rβ and common γ chain) in the absence of the IL-15Rα chain (murine, UniProt P16297 27-539; P34902 23-369); assay: equilibrium binding of 125I-simian IL-15 to 32Dmβ-5 cells: no IL-15 binding sites beyond those of the 32D-01 parent line
T1 construct: whole, on cells; On 32Dmβ-5 cells, which also express IL-2Rα and about 40 sites per cell of endogenous IL-15Rα; also called murine IL-2Rβ/γc; 32Dmβ-5 cells
T1 sequence (looked up) 1: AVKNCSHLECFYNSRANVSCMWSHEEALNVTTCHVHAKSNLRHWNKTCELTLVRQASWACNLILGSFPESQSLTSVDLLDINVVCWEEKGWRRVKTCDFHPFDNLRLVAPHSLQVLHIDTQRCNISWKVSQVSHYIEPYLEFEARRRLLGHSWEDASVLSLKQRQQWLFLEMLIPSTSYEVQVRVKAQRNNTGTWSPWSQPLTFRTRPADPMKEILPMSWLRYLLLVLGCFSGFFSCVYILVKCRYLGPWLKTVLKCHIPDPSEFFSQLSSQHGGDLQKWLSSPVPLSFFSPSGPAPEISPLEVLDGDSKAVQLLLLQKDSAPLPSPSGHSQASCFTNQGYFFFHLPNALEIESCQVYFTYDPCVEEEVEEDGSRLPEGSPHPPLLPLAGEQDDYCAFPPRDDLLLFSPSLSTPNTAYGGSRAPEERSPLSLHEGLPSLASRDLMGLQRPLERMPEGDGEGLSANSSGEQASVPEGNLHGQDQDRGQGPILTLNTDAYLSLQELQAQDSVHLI
T1 sequence (looked up) 2: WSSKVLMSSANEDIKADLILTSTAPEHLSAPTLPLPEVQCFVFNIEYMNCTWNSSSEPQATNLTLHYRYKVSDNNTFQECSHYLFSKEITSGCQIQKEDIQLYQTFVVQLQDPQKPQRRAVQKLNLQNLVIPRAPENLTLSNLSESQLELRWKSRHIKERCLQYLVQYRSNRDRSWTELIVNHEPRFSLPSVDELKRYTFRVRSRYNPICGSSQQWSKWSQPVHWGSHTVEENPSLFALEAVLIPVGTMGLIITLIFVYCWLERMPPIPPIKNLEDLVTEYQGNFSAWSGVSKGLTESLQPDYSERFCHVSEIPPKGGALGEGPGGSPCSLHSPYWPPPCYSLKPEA

[2] = molecular target: T2, murine IL-15R (full length, cDNA clone D1-4-D5) (murine, UniProt Q60819 33-263); assay: equilibrium binding of 125I-simian IL-15 to parental 32D-01 cells (endogenous IL-15Rα)
T2 construct: Cell-surface receptor: recombinant on COS-7 and 32D transfectants, native or endogenous on D10, 32D-01, 32Dmβ-5 and CTLL.2 cells; 32D lines also carry IL-2Rα and γc, and some carry IL-2Rβ; the cell line is named under assay; also called murine IL-15Rα; IL-15Rα
T2 sequence: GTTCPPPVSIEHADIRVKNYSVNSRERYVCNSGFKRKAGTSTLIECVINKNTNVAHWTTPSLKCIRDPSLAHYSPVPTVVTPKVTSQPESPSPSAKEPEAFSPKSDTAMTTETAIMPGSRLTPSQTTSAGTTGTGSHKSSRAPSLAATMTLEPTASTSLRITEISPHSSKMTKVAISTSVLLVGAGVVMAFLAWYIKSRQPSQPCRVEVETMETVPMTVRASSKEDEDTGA

[3] = molecular target: T2, murine IL-15R (full length, cDNA clone …); assay: equilibrium binding of 125I-simian IL-15 to 32Dmβm15Rα-3 cells (recombinant IL-15Rα and IL-2Rβ, γc constitutive)
[4] = molecular target: T2, murine IL-15R (full length, cDNA clone …); assay: equilibrium binding of 125I-simian IL-15 to 32Dm15Rα-102 cells (transfected with IL-15Rα)
[5] = molecular target: T3, native human IL-15 receptor on human cells (human, UniProt Q13261 31-267); assay: radiolabeled IL-15 binding to vascular endothelial cells of arterial origin
T3 construct: whole, on cells; Endogenous receptor; its subunits on these cells were not defined; Clone W5 was later cloned from W126-VA4 cells, and clones A212 and A133 from A172 cells
T3 sequence (Q13261 31-267): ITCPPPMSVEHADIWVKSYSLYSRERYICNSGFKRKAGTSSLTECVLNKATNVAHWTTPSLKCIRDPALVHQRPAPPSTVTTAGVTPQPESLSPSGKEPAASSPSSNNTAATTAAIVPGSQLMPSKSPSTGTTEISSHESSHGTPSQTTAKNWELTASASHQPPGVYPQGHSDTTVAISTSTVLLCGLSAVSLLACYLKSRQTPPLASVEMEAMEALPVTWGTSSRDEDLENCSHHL
Description: (§1) Various human cell lines and tissues were screened for the ability to bind radiolabeled IL-15 substantially as described in Example 1. High affinity binding was observed on activated peripheral blood mononuclear cells, activated monocytes and some EBV-transformed cell lines.

[6] = molecular target: T2, murine IL-15R (full length, cDNA clone …); assay: 125I-IL-15 binding to monolayers of COS cells transfected with clone D1-4-D5
Procedure: D. Recombinant IL-15R Binding. Plasmid DNA from IL-15 receptor expression plasmid was used to transfect a sub-confluent layer of monkey COS-7 cells using DEAE-dextran followed by chloroquine treatment, as described by Luthman et al., Nucl Acids Res. 11:1295 (1983) and McCutchan et al., J. Natl. Cancer Inst. 41:351 (1968). The cells were then grown in culture for three days to permit transient expression of the inserted sequences. After three days, the cell monolayers were assayed for ¹²⁵I-IL-15 binding essentially as described by Park, et al., J. Exp. Med. 166:476 (1987). Non-specific binding of ¹²⁵I-IL-15 was measured in the presence of 200-fold or greater excess of unlabeled IL-15.

[7] = molecular target: T2, murine IL-15R (full length, cDNA clone …); assay: equilibrium binding of 125I-simian IL-15 to D10 cells (native IL-15R)
[8] = molecular target: T3, native human IL-15 receptor on human …; assay: radiolabeled IL-15 binding to the human fibroblast line W126-VA4
Description: as §1

[9] = molecular target: T2, murine IL-15R (full length, cDNA clone …); assay: equilibrium binding of 125I-simian IL-15 to 32Dmβ-5 cells (sites ascribed to endogenous IL-15Rα)
[10] = molecular target: T3, native human IL-15 receptor on human …; assay: radiolabeled IL-15 binding to vascular endothelial cells of venous origin
Description: as §1

[11] = molecular target: T3, native human IL-15 receptor on human …; assay: radiolabeled IL-15 binding to the glioblastoma cell line A-172
Description: as §1

B1: Recombinant flag simian IL-15 expressed in yeast (ligand)
chain: DYKDDDDKNWVNVISDLKKIEDLIQSMHIDATLYTESDVHPSCKVTAMKCFLLELQVISHESGDTDIHDTVENLIILANNILSSNGNITESGCKECEELEEKNIKEFLQSFVHIVQMFINTS
modifications: radioiodinated (125I, enzymobead iodination reagent); labelled residues not stated
notes: Flag-tagged simian IL-15 made in yeast, purified and radioiodinated; also called 125I-IL-15; 125I-simian IL-15
binding result [1]: no binding
Ka [2]: 1.4e+11 M⁻¹
Ka [3]: 2.2e+11 M⁻¹
Ka [4]: 1.5e+11 M⁻¹
Kd [5]: 0.163 nM
Kd [6]: 1 to 2.2 nM
Ka [7]: 1.3e+11 M⁻¹
Kd [8]: 0.027 nM
Ka [9]: 1.9e+11 M⁻¹
Kd [10]: 0.033 nM
Kd [11]: 0.05 to 0.138 nM
